Results on six molecules are retold here after paper PMC3734299, “Farnesyl Phosphatase, a Corpora allata Enzyme Involved in Juvenile Hormone Biosynthesis in Aedes aegypti” (PLoS ONE, 2013).

Data set [1] deals with T1, AaFPPase-2 (Aedes aegypti, UniProt Q0IF21).
T1 construct: gene 5568744; His-tagged, expressed in E. coli, purified on HiTrap chelating and PD-10 columns, ~35 kDa
T1 sequence (Q0IF21 1-315): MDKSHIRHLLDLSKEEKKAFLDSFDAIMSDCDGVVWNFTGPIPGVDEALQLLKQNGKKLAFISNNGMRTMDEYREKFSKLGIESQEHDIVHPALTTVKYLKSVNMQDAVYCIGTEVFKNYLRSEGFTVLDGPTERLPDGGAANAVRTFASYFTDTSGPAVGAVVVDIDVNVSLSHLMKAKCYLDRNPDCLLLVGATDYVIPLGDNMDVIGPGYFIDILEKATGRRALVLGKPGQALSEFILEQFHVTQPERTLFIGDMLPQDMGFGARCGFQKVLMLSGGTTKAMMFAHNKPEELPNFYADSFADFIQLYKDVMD
Nature of the data set: p-NPP phosphatase assay, inhibition. The class given is biochemical. To be noted: inhibitor 0 to 40 µM, 10 min pre-incubation.

Data set [2] deals with T2, AaFPPase-1.
T2 construct: His-tagged, expressed in E. coli, purified on HiTrap chelating and PD-10 columns, ~35 kDa
Put plainly: p-NPP phosphatase assay, 96-well plate. The format is biochemical, Aedes aegypti. To be noted: Mg2+ cofactor; optimum pH 6.0.

Data set [3] addresses T1, AaFPPase-2. Put plainly: malachite green phosphate release. The class given is biochemical. To be noted: 100 mM MES pH 6.0, 2 mM MgCl2, 37 °C; read-out: Km μM ±SE.
In data set [4] the test system is T2, AaFPPase-1. Put plainly: malachite green phosphate release. The class given is biochemical, Aedes aegypti. Conditions: 100 mM MES pH 6.0, 2 mM MgCl2, 37 °C; read-out: Km μM ±SE. An excerpt:
malachite green phosphate release on AaFPPase-1

Substrate in data set [5]: CC(C)=CCC/C(C)=C/CC/C(C)=C/CO[P@@](=O)(O)OP(=O)(O)O
Put plainly: malachite green phosphate release. The format is biochemical, Aedes aegypti. To be noted: 100 mM MES pH 6.0, 2 mM MgCl2, 37 °C.

Substrate in data set [6]: CC(C)=CCC/C(C)=C/COP(=O)(O)OP(=O)(O)O
Put plainly: malachite green phosphate release. The format is biochemical, Aedes aegypti. Conditions: 100 mM MES pH 6.0, 2 mM MgCl2, 37 °C.

Substrate in data set [7]: O=[N+]([O-])c1ccc(OP(=O)(O)O)cc1
Nature of the data set: p-NPP phosphatase assay, 96-well plate. The class given is biochemical, Aedes aegypti. Conditions: Mg2+ cofactor, optimum pH 6.0.

As for `CC(=O)N[C@@H](CSC/C=C(\C)CC/C=C(\C)CC/C=C(\C)CCC=C(C)C)C(=O)O` [AGGC], the inhibition entry in data set [1] is “AGGC was a potent inhibitor of AaFPPase-1 and AaFPPase-2 (Figure S3)”.
A word on the Km: it is the substrate concentration at which the rate is half of its maximum. As for `O=[N+]([O-])c1ccc(OP(=O)(O)O)cc1` [p-NPP], in data set [2], the Michaelis-Menten constant (Km) stood at 3960 ± 127 µM.
On to `C=C(C)CCO[P@@](=O)(O)OP(=O)(O)O` [IPP], for which the Km in data set [3] and in data set [4] was above 900 µM in each case.
As for `CC(C)=CCC/C(C)=C/CC/C(C)=C/COP(=O)(O)OP(=O)(O)O` [FPP], the Km in data set [4] is 222 ± 11 µM.
In the case of `CC(C)=CCC/C(C)=C/COP(=O)(O)OP(=O)(O)O` [GPP], the Km in data set [4] turned out to be 184 ± 14.2 µM.

B1: AaFPPase-2 (Aedes aegypti) (protein)
chain: MDKSHIRHLLDLSKEEKKAFLDSFDAIMSDCDGVVWNFTGPIPGVDEALQLLKQNGKKLAFISNNGMRTMDEYREKFSKLGIESQEHDIVHPALTTVKYLKSVNMQDAVYCIGTEVFKNYLRSEGFTVLDGPTERLPDGGAANAVRTFASYFTDTSGPAVGAVVVDIDVNVSLSHLMKAKCYLDRNPDCLLLVGATDYVIPLGDNMDVIGPGYFIDILEKATGRRALVLGKPGQALSEFILEQFHVTQPERTLFIGDMLPQDMGFGARCGFQKVLMLSGGTTKAMMFAHNKPEELPNFYADSFADFIQLYKDVMD
notes: His-tagged, expressed in E. coli, purified on HiTrap chelating and PD-10 columns, ~35 kDa
One may read the Vmax as the top rate of the reaction or transport when substrate is in excess. What is called kcat is the number of substrate molecules converted per active site and unit of time at saturation. What is called kcat/Km is the second-order rate constant that governs catalysis at low substrate concentration. For the molecule B1, in data set [5], the Km turned out to be 221.02 ± 15.62 µM, the maximal velocity (Vmax) was 5.77 µmol/min/mg, the kcat came out at 2.98 s⁻¹ and the specificity constant (kcat/Km) stood at 13200 M⁻¹ s⁻¹. Also, in data set [6], the Km stood at 273.98 ± 2.52 µM, the Vmax was found to be 28.3 µmol/min/mg, the kcat came to 17.5 s⁻¹ and the specificity constant (kcat/Km) was 63000 M⁻¹ s⁻¹. The Km in data set [7] was determined as 315.5 ± 46.9 µM.
